PMC6905151
pKd: −log10 of the molar value. Like-named read-outs stand apart in the source and are kept apart here.

Tests used:
IgM (Homo sapiens) = IgM (Homo sapiens) (UniProt P01871); details: cited from earlier work
[1] = target: IgM-Fc (Fcμ2-4) mutant M1 (K361D/D416R) (human); experiment: SEC-MALS; SEC-MALLS on Superdex 200 Increase 5/150 with in-line miniDAWN detector and refractometer; peaks of the homodimeric Fcμ2-4 proteins from SEC
[2] = target: IgM-Fc (Fcμ2-4) mutant M2 (Q510R) (human); experiment: as above
[3] = target: IgM-Fc (Fcμ2-4) mutant M3 (D340S/Q341G/D342S/T343S) (human); experiment: as above
[4] = target: IgM-Fc (Fcμ2-4) wild-type, dimer of Cμ2-Cμ3-Cμ4 domains (human); experiment: as above
[5] = target: Fcμ3-4, dimer of Cμ3-Cμ4 domains (human); experiment: SPR; Biacore T200, 25 °C, 0.01 M HEPES, 0.15 M NaCl, 0.005% Surfactant P20, pH 7.4; IgM, IgM-Fc, Fcμ3-4 or IgM-Fc mutants immobilised on CM5 by amine coupling; analyte sIgFcμR 0.25 μM to 12 μM; steady state, 1:1 binding model
[6] = target: IgM-Fc (Fcμ2-4) wild-type, dimer of Cμ2-Cμ3-Cμ4 domains (human); experiment: as above
[7] = target: purified serum IgM (whole pentameric IgM) (human); experiment: as above
[8] = target: IgM-Fc (Fcμ2-4) mutant M3 (D340S/Q341G/D342S/T343S) (human); experiment: as above
[9] = target: IgM-Fc (Fcμ2-4) wild-type, dimer of Cμ2-Cμ3-Cμ4 domains (human); experiment: as above; remark: listed apart in the source

Chain of Fcμ3-4, dimer of Cμ3-Cμ4 domains (human) (P01871 other isoform, or with tags, fused parts or gaps): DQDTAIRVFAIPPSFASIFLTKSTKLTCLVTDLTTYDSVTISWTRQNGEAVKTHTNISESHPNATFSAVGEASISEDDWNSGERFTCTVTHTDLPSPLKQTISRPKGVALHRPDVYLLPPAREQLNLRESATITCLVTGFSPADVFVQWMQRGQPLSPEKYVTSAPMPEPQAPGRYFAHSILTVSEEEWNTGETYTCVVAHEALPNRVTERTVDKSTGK
Chain of FcμR (cell surface) (O60667 17-390): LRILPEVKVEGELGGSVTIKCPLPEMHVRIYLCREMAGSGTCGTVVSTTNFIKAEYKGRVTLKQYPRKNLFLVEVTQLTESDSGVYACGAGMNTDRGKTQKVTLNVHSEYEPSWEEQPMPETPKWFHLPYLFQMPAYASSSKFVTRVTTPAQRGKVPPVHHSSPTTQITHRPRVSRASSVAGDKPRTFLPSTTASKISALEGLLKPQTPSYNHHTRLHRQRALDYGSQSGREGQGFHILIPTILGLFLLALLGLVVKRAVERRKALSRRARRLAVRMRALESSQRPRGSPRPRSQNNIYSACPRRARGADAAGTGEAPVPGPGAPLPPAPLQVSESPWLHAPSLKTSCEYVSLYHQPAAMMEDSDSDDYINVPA
Chain of IgM (Homo sapiens) (P01871 whole entry): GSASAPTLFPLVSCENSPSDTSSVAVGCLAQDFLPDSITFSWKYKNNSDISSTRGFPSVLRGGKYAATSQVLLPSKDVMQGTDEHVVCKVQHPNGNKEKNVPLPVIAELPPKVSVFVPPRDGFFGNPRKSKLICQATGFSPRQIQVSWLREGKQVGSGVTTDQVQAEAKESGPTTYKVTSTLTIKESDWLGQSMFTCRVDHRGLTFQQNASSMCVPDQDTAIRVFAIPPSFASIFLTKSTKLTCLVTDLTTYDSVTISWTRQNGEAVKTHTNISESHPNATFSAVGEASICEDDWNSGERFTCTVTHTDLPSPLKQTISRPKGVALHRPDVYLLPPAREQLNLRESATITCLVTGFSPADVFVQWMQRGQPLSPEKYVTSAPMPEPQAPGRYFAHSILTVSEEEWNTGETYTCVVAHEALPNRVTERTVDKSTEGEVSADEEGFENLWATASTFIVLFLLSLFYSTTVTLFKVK

## FcμR (cell surface) (from UniProt O60667)
IgM (Homo sapiens)
  pKd: 8.00

## IgM-Fc (Fcμ2-4) mutant M1 (K361D/D416R) (domain or fragment)
[1]
  stoichiometry N: 2

## IgM-Fc (Fcμ2-4) mutant M2 (Q510R) (domain or fragment)
[2]
  stoichiometry N: 2

## IgM-Fc (Fcμ2-4) mutant M3 (D340S/Q341G/D342S/T343S) (domain or fragment)
[3]
  stoichiometry N: 2

## IgM-Fc (Fcμ2-4) wild-type, dimer of Cμ2-Cμ3-Cμ4 domains (domain or fragment)
[4]
  stoichiometry N: 2

## soluble extracellular immunoglobulin-like domain of FcμR (domain or fragment)
[5]
  stoichiometry N (sIgFcμR per IgM-Fc homodimer): 2
[6]
  pKd: 5.94
  stoichiometry N (sIgFcμR per IgM-Fc homodimer): 2
[7]
  pKd: 5.60
  stoichiometry N (sIgFcμR per IgM-Fc homodimer): 2
[8]
  pKd: 5.84
[9]
  pKd: 5.74
